Test results reported in patent US9415135B2, “Methods and compositions for stabilizing the myocardium” (The Regents of the University of California, priority 2002, dated 2016).

Tests used:
MMP-1 = target: T1, MMP-1 (Homo sapiens, UniProt P03956); conditions: MMP-13 to MMP-1; cited from earlier work
T1 sequence (P03956 100-469): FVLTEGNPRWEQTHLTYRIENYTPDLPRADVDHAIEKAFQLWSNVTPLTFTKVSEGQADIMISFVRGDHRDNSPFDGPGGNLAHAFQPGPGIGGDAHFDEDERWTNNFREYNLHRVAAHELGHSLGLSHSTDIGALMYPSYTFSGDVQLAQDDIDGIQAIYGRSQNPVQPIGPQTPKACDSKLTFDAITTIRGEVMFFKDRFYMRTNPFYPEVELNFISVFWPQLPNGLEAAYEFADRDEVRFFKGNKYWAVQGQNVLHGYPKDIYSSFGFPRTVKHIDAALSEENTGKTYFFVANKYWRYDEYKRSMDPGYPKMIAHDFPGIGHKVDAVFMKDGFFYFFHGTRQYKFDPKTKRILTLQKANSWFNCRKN

MMP-3 = MMP-3 (Homo sapiens, UniProt P08254); conditions: MMP-13 to MMP-3; cited from earlier work
Sequence of MMP-3 (P08254 100-477, species assumed): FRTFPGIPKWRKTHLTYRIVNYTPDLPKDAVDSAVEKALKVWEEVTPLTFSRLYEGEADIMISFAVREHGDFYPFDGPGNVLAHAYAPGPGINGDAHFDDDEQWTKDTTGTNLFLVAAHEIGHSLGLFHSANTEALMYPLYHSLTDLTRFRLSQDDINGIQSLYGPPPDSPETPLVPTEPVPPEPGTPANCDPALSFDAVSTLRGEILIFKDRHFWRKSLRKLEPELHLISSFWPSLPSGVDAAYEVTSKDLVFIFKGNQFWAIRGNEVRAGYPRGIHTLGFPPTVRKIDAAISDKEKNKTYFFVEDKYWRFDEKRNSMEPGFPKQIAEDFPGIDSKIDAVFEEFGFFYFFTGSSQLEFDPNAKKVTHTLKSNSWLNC

MMP-9 = MMP-9 (Homo sapiens, UniProt P14780); conditions: MMP-13 to MMP-9; cited from earlier work
Sequence of MMP-9 (P14780 94-707, species assumed): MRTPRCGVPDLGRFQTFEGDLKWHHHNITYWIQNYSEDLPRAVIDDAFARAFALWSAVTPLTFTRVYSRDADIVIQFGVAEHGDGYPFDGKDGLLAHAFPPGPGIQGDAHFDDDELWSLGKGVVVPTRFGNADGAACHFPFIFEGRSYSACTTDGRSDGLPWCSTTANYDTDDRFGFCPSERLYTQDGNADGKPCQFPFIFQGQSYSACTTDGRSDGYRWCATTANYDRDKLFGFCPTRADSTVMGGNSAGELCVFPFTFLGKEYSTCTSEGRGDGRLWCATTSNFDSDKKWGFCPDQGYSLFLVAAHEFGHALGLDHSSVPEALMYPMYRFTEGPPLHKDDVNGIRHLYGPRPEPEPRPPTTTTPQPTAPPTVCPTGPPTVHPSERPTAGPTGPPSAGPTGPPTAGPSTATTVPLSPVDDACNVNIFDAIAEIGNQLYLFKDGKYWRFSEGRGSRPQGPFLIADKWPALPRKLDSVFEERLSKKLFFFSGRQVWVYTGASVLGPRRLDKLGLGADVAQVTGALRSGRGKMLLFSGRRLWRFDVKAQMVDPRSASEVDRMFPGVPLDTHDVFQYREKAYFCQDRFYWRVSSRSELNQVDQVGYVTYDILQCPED

[1] = tested on: neural stem cells (NSCs) from adult hippocampus; test: NSC adhesion and proliferation on peptide-modified IPNs (CyQUANT); format: cell-based, rat
Method: Neural stem cells were isolated from the hippocampi of adult female Fischer 344 rats as previously described (Lai, K., et al., Nat Neurosci, 6(1):21-7 (2003)). Cells at (200-10,000 cells/well) were seeded onto peptide-modified IPNs and laminin-modified culture wells and incubated (37° C., 5% CO2) in serum-free media consisting of DMEM/Hams F-12 medium with N−2 supplement. These media conditions were supplemented with various soluble factors to modulate cell behavior: 20 ng·ml^−1 basic fibroblast growth factor (bFGF) for cell proliferation or 1 μM retinoic acid with 5 μM forskolin for neuronal differentiation. Wells were rinsed every 48 hrs with fresh media.
NSCs isolated from the adult hippocampus were seeded onto bsp-RGD(15)-modified IPNs at various cell densities over four orders of magnitude. […] 18(2):337-45 (2002)). Such spheres provide less precise control over the cellular microenvironment, due in part to spatial gradients in signaling and nutrients and internal necrosis.
For quantitative assays of proliferation, the NSCs were seeded at 1000 cells per well on various surfaces and grown for 3-6 days, and cell number was determined using a fluorescent dye that binds to nucleic acids, CyQUANT (Molecular Probes, Eugene, Oreg.). Briefly, cells grown on a particular surface for a fixed duration were washed once with phosphate buffer saline and lysed in the manufacturer's buffer with dye. Next, the fluorescent intensity of resulting solution was measured. […] Any increase in cell number on the negative control bsp-RGE(15)-modified IPNs reflected growth of weakly adherent neurospheres (FIG. 2d-e). About 10 pmol·cm^−2 bsp-RGD(15) was needed to support proliferation of NSCs, corresponding to ˜10^6 ligands per cell for the 10 μm diameter cells.

[2] = tested on: neural stem cells (NSCs) from adult hippocampus; test: NSC phenotype and differentiation on peptide-modified IPNs (qRT-PCR, immunofluorescent staining); format: cell-based, rat; conditions: 1 μM retinoic acid with 5 μM forskolin
Method: Neural stem cells were isolated from the hippocampi of adult female Fischer 344 rats as previously described (Lai, K., et al., Nat Neurosci, 6(1):21-7 (2003)). Cells at (200-10,000 cells/well) were seeded onto peptide-modified IPNs and laminin-modified culture wells and incubated (37° C., 5% CO2) in serum-free media consisting of DMEM/Hams F-12 medium with N-2 supplement. These media conditions were supplemented with various soluble factors to modulate cell behavior: 20 ng·ml^-1 basic fibroblast growth factor (bFGF) for cell proliferation or 1 μM retinoic acid with 5 μM forskolin for neuronal differentiation. Wells were rinsed every 48 hrs with fresh media. […] To assay phenotype, two methods were used: quantitative real time PCR (qRT-PCR) and immunofluorescent staining. […] Quantitative real time PCR was used as a complementary technique to accurately quantify specific cDNA concentrations in various cDNA samples from cells grown on IPNs and laminin (using a Bio-Rad Laboratories iCycler). GFAP expression levels were quantified as a marker for astrocytic differentiation of the progenitor cells. β-Tubulin-III was used as a marker for neurons. […] The plasmids were linearized by restriction digest and quantified by absorbance, and tenfold serial dilutions from 1 ng/μL to 10^-9 ng/μL were prepared to generate a standard curve. […]

αvβ3 integrin = αvβ3 integrin (Homo sapiens, UniProt P05106+P06756); conditions: high affinity; read-out: IC50, αvβ3 integrin binding; cited from earlier work
Sequence of αvβ3 integrin (P06756 31-889 limits assumed): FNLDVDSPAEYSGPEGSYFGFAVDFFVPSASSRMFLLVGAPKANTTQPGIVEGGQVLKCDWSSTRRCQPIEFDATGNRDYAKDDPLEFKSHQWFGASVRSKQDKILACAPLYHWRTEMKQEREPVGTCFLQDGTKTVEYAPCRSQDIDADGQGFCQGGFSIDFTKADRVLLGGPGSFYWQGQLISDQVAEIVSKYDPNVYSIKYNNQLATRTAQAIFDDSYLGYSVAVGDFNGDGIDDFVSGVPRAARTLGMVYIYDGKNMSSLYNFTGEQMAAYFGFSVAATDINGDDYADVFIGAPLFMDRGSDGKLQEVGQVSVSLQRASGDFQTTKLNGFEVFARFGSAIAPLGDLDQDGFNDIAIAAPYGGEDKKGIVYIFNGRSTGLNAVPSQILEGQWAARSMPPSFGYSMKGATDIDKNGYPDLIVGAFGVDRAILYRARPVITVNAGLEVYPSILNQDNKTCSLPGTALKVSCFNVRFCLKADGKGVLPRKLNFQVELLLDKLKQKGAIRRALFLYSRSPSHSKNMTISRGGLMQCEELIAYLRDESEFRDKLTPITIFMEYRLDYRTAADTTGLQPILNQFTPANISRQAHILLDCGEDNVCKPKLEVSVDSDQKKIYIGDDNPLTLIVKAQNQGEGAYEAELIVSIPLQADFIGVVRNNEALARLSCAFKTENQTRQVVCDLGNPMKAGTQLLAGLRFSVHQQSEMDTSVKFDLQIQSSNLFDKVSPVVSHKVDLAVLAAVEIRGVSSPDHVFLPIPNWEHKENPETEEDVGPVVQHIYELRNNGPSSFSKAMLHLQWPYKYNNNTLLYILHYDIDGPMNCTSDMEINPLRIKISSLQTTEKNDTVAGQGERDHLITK
Sequence of αvβ3 integrin (P06756 891-1048 partner limits assumed): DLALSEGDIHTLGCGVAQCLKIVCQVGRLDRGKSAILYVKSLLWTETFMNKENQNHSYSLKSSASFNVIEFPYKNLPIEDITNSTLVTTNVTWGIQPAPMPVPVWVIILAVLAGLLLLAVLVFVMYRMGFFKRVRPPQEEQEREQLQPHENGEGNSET
Sequence of αvβ3 integrin (P05106 27-788): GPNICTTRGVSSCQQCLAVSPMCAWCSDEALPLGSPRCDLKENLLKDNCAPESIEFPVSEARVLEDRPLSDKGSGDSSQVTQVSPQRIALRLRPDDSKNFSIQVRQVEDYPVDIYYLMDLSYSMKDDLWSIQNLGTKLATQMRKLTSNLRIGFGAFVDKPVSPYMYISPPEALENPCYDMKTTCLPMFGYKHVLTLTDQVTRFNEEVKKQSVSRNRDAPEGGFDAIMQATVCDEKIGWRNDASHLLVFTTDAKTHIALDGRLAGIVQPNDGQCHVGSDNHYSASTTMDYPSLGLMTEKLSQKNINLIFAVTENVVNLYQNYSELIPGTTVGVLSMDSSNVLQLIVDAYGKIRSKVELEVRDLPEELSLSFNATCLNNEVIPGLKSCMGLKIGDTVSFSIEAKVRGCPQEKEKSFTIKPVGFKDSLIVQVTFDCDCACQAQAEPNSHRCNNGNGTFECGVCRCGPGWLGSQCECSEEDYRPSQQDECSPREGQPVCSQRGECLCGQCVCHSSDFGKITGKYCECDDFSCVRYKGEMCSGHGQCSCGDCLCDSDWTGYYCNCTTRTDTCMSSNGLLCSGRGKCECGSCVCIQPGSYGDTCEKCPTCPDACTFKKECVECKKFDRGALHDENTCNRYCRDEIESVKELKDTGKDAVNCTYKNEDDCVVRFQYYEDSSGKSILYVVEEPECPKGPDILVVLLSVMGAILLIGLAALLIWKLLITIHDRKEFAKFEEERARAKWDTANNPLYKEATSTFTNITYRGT

αvβ5 integrin = αvβ5 integrin (Homo sapiens, UniProt P06756+P18084); conditions: low affinity; cited from earlier work
Sequence of αvβ5 integrin (P06756 31-889 limits assumed): as the sequence (P06756 31-889 limits assumed) above
Sequence of αvβ5 integrin (P06756 891-1048 partner limits assumed): as the sequence (P06756 891-1048 partner limits assumed) above
Sequence of αvβ5 integrin (P18084 24-799): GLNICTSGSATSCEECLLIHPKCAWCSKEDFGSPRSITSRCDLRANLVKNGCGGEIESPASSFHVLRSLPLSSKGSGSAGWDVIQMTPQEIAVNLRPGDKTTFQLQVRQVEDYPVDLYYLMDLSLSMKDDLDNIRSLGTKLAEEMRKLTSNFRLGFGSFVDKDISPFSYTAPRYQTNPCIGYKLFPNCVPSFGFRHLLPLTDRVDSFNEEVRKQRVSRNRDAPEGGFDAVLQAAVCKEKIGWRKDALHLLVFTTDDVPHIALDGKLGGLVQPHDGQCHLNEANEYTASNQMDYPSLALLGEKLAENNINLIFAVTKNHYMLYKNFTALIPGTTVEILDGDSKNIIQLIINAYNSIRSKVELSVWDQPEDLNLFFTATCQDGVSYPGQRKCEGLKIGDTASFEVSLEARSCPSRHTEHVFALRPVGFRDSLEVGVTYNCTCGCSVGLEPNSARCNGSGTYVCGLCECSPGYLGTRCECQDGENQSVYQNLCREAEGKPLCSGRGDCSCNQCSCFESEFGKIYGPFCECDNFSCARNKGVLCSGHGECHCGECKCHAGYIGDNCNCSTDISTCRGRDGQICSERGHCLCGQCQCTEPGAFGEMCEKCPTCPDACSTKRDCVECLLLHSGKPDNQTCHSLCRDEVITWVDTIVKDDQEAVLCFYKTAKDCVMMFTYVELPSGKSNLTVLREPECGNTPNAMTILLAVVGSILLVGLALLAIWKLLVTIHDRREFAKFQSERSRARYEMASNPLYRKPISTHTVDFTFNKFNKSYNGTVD

αIIBβ3 integrin = αIIBβ3 integrin (Homo sapiens, UniProt P05106+P08514); conditions: low affinity; cited from earlier work
Sequence of αIIBβ3 integrin (P08514 32-887 limits assumed): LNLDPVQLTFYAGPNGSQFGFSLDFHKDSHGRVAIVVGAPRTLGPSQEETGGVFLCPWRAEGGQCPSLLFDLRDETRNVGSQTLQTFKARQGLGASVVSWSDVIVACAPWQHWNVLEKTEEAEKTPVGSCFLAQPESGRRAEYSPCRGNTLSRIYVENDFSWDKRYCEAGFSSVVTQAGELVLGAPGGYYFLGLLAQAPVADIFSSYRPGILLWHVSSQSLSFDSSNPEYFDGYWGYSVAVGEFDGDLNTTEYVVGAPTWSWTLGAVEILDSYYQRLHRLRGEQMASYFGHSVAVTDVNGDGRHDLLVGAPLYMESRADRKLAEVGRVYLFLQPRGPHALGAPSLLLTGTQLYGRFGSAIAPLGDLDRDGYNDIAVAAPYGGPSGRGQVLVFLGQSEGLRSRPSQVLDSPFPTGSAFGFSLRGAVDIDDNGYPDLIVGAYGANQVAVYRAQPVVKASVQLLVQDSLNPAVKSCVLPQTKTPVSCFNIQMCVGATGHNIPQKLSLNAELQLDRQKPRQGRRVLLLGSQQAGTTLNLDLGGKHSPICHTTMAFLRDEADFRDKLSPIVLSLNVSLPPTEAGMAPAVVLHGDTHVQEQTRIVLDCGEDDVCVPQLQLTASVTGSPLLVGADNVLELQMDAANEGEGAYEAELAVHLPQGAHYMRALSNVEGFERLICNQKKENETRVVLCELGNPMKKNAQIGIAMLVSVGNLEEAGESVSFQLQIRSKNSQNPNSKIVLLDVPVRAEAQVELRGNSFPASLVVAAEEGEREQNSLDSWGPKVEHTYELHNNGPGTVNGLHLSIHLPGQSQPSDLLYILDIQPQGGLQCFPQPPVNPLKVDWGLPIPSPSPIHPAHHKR
Sequence of αIIBβ3 integrin (P08514 891-1039 partner limits assumed): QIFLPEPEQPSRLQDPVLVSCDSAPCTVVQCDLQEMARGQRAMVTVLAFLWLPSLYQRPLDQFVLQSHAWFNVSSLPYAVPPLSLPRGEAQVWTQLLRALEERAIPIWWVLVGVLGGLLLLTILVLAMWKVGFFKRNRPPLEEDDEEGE
Sequence of αIIBβ3 integrin (P05106 27-788): as the sequence (P05106 27-788) above

Substance | Selectivity (kcat/Km ratio for MMP-13 to MMP-x), MMP-1 (MMP-1) | Selectivity (kcat/Km ratio for MMP-13 to MMP-x), MMP-3 (MMP-3) | Selectivity (kcat/Km ratio for MMP-13 to MMP-x), MMP-9 (MMP-9) | also measured
C2-12P3A: literature MMP-13 peptide substrate, P4-P3' G A L G L S L (SEQ ID NO: 26) (GALGLSL; test peptide substrate) [Sample C2-12P3A] | 8.3 | 14 | 4.6 | –
C2-22: literature MMP-13 peptide substrate, P4-P4' G P R P F N Y L (SEQ ID NO: 24) (GPRPFNYL; test peptide substrate) [Sample C2-22] | 180 | 7.9 | 21 | –
C3-16: literature MMP-13 peptide substrate, P4-P4' G P K G V Y S L (SEQ ID NO: 27) (GPKGVYSL; test peptide substrate) [Sample C3-16] | 5500 | 3600 | 2.2 | –
C5-27: literature MMP-13 peptide substrate, P4-P4' G P F G F K S L (SEQ ID NO: 25) (GPFGFKSL; test peptide substrate) [Sample C5-27] | 2900 | 250 | 4.8 | –
CGGNGEPRGDTYRAY (15-mer bone sialopeptide sequence; bsp-RGD(15)) | – | – | – | bsp-RGD(15) surface density needed to support proliferation of NSCs ([1]; grafted on IPN): About 10 pmol·cm^−2
CGGNGEPRGETYRAY (bone sialopeptide sequence; bsp-RGE(15)) | – | – | – | NSC adhesion / attachment ([1]; proliferating or differentiating media conditions): did not support attachment
CP: literature MMP-13 peptide substrate, P4-P4' G P L G M R G L (SEQ ID NO: 23) (GPLGMRGL; test peptide substrate) | 820 | 1300 | 11 | –
CSRARKQAASIKVAVSADR (lam-IKVAV(19) peptide) | – | – | – | NSC differentiation into neural lineages [2]: did not enhance either cell proliferation or differentiation; NSC proliferation ([1]; proliferating media (bFGF)): did not enhance either cell proliferation or differentiation
H-Glu[cyclo (Arg-Gly-Asp-D-Phe-Lys)]2 [bicyclic RGD peptide reported by Janssen et al] | – | – | – | IC50 (αvβ3 integrin): 0.9 nM; IC50 (αvβ5 integrin): 10 nM; IC50 (αIIBβ3 integrin): 10 nM
